Patent US20230212549A1 (3B PHARMACEUTICALS, published 2023)
Numbered stars: 1 amine (or outer) side, 2 acyl side, 3 side chain; on linkers, the order of the positions; unused ones are H or OH. Bridge positions count the residues as written; N and C are the ends. Square brackets hold non-standard residues; d marks the D form. Primed or numbered codes have the meaning given here. * marks the point of attachment. Ttds″ = 1,13-diamino-4,7,10-trioxatridecan-succinamic acid spacer, O=C(CCC(=O)[*:2])NCCCOCCOCCOCCCN[*:1]; DOTA = O=C(O)CN1CCN(CC(=O)O)CCN(CC(=O)*)CCN(CC(=O)O)CC1; mXylylene = c1cc(C[*:1])cc(C[*:2])c1; NMeF = CN[C@@H](Cc1ccccc1)C(=O)O; αMeF = C[C@](N)(Cc1ccccc1)C(=O)O; 4Pal = N[C@@H](Cc1ccncc1)C(=O)O; Tic = O=C(O)[C@@H]1Cc2ccccc2CN1; 2Thi = N[C@@H](Cc1cccs1)C(=O)O; Aic = NC1(C(=O)O)Cc2ccccc2C1; Hexanoyl = CCCCCC(=O)*

B1: Ac-Met-[Cys(3MeBn)-Pro-Pro-Thr-Glu-Phe-Cys]-Asp-His-Amf-Arg-Asp-NH2 (peptide)
peptide: Ac-MCPPTEFCDH[αMeF]RD-NH2
modifications: linker 2-8 via mXylylene
SMILES: CSCC[C@H](NC(C)=O)C(=O)N[C@H]1CSCc2cccc(c2)CSC[C@@H](C(=O)N[C@@H](CC(=O)O)C(=O)N[C@@H](Cc2c[nH]cn2)C(=O)N[C@@](C)(Cc2ccccc2)C(=O)N[C@@H](CCCNC(=N)N)C(=O)N[C@@H](CC(=O)O)C(N)=O)NC(=O)[C@H](Cc2ccccc2)NC(=O)[C@H](CCC(=O)O)NC(=O)[C@H]([C@@H](C)O)NC(=O)[C@@H]2CCCN2C(=O)[C@@H]2CCCN2C1=O
notes: also called 3BP-3203
B2: Ac-Met-[Cys(3MeBn)-Pro-Pro-Thr-Glu-Phe-Cys]-Asp-His-Phe-Arg-NH2 (peptide)
peptide: Ac-MCPPTEFCDHFR-NH2
modifications: linker 2-8 via mXylylene
SMILES: CSCC[C@H](NC(C)=O)C(=O)N[C@H]1CSCc2cccc(c2)CSC[C@@H](C(=O)N[C@@H](CC(=O)O)C(=O)N[C@@H](Cc2c[nH]cn2)C(=O)N[C@@H](Cc2ccccc2)C(=O)N[C@@H](CCCNC(=N)N)C(N)=O)NC(=O)[C@H](Cc2ccccc2)NC(=O)[C@H](CCC(=O)O)NC(=O)[C@H]([C@@H](C)O)NC(=O)[C@@H]2CCCN2C(=O)[C@@H]2CCCN2C1=O
notes: also called 3BP-3200
B3: Ac-Met-[Cys(3MeBn)-Pro-Pro-Thr-Glu-Phe-Cys]-Asp-His-Phe-Arg-asp-NH2 (peptide)
peptide: Ac-MCPPTEFCDHFR[dD]-NH2
modifications: linker 2-8 via mXylylene
SMILES: CSCC[C@H](NC(C)=O)C(=O)N[C@H]1CSCc2cccc(c2)CSC[C@@H](C(=O)N[C@@H](CC(=O)O)C(=O)N[C@@H](Cc2c[nH]cn2)C(=O)N[C@@H](Cc2ccccc2)C(=O)N[C@@H](CCCNC(=N)N)C(=O)N[C@H](CC(=O)O)C(N)=O)NC(=O)[C@H](Cc2ccccc2)NC(=O)[C@H](CCC(=O)O)NC(=O)[C@H]([C@@H](C)O)NC(=O)[C@@H]2CCCN2C(=O)[C@@H]2CCCN2C1=O
notes: also called 3BP-3213
B4: Hex-[Cys(3MeBn)-Pro-Pro-Thr-Glu-Phe-Cys]-Asp-His-Nmf-Arg-Ttds-Lys(DOTA)-NH2 (peptide)
peptide: Hexanoyl-CPPTEFCDH[NMeF]R[Ttds″]K(DOTA)-NH2
modifications: linker 1-7 via mXylylene
SMILES: CCCCCC(=O)N[C@H]1CSCc2cccc(c2)CSC[C@@H](C(=O)N[C@@H](CC(=O)O)C(=O)N[C@@H](Cc2c[nH]cn2)C(=O)N(C)[C@@H](Cc2ccccc2)C(=O)N[C@@H](CCCNC(=N)N)C(=O)NCCCOCCOCCOCCCNC(=O)CCC(=O)N[C@@H](CCCCNC(=O)CN2CCN(CC(=O)O)CCN(CC(=O)O)CCN(CC(=O)O)CC2)C(N)=O)NC(=O)[C@H](Cc2ccccc2)NC(=O)[C@H](CCC(=O)O)NC(=O)[C@H]([C@@H](C)O)NC(=O)[C@@H]2CCCN2C(=O)[C@@H]2CCCN2C1=O
notes: also called 3BP-3275
B5: Ac-Met-[Cys(3MeBn)-Pro-Pro-Thr-Glu-Phe-Cys]-Asp-his-Phe-Arg-Asp-NH2 (peptide)
peptide: Ac-MCPPTEFCD[dH]FRD-NH2
modifications: linker 2-8 via mXylylene
SMILES: CSCC[C@H](NC(C)=O)C(=O)N[C@H]1CSCc2cccc(c2)CSC[C@@H](C(=O)N[C@@H](CC(=O)O)C(=O)N[C@H](Cc2c[nH]cn2)C(=O)N[C@@H](Cc2ccccc2)C(=O)N[C@@H](CCCNC(=N)N)C(=O)N[C@@H](CC(=O)O)C(N)=O)NC(=O)[C@H](Cc2ccccc2)NC(=O)[C@H](CCC(=O)O)NC(=O)[C@H]([C@@H](C)O)NC(=O)[C@@H]2CCCN2C(=O)[C@@H]2CCCN2C1=O
notes: also called 3BP-3210
B6: Ac-[Cys(3MeBn)-Pro-Pro-Thr-Glu-Phe-Cys]-Asp-His-Phe-Arg-Asp-NH2 (peptide)
peptide: Ac-CPPTEFCDHFRD-NH2
modifications: linker 1-7 via mXylylene
SMILES: CC(=O)N[C@H]1CSCc2cccc(c2)CSC[C@@H](C(=O)N[C@@H](CC(=O)O)C(=O)N[C@@H](Cc2c[nH]cn2)C(=O)N[C@@H](Cc2ccccc2)C(=O)N[C@@H](CCCNC(=N)N)C(=O)N[C@@H](CC(=O)O)C(N)=O)NC(=O)[C@H](Cc2ccccc2)NC(=O)[C@H](CCC(=O)O)NC(=O)[C@H]([C@@H](C)O)NC(=O)[C@@H]2CCCN2C(=O)[C@@H]2CCCN2C1=O
notes: also called 3BP-3202
B7: Hex-[Cys(3MeBn)-Pro-Pro-Thr-Glu-Phe-Cys]-Asp-His-phe-Arg-Ttds-Lys(DOTA)-NH2 (peptide)
peptide: Hexanoyl-CPPTEFCDH[dF]R[Ttds″]K(DOTA)-NH2
modifications: linker 1-7 via mXylylene
SMILES: CCCCCC(=O)N[C@H]1CSCc2cccc(c2)CSC[C@@H](C(=O)N[C@@H](CC(=O)O)C(=O)N[C@@H](Cc2c[nH]cn2)C(=O)N[C@H](Cc2ccccc2)C(=O)N[C@@H](CCCNC(=N)N)C(=O)NCCCOCCOCCOCCCNC(=O)CCC(=O)N[C@@H](CCCCNC(=O)CN2CCN(CC(=O)O)CCN(CC(=O)O)CCN(CC(=O)O)CC2)C(N)=O)NC(=O)[C@H](Cc2ccccc2)NC(=O)[C@H](CCC(=O)O)NC(=O)[C@H]([C@@H](C)O)NC(=O)[C@@H]2CCCN2C(=O)[C@@H]2CCCN2C1=O
notes: also called 3BP-3276
B8: Ac-Met-[Cys(3MeBn)-Pro-Pro-Thr-Glu-Phe-Cys]-Asp-His-Nmf-Arg-Asp-NH2 (peptide)
peptide: Ac-MCPPTEFCDH[NMeF]RD-NH2
modifications: linker 2-8 via mXylylene
SMILES: CSCC[C@H](NC(C)=O)C(=O)N[C@H]1CSCc2cccc(c2)CSC[C@@H](C(=O)N[C@@H](CC(=O)O)C(=O)N[C@@H](Cc2c[nH]cn2)C(=O)N(C)[C@@H](Cc2ccccc2)C(=O)N[C@@H](CCCNC(=N)N)C(=O)N[C@@H](CC(=O)O)C(N)=O)NC(=O)[C@H](Cc2ccccc2)NC(=O)[C@H](CCC(=O)O)NC(=O)[C@H]([C@@H](C)O)NC(=O)[C@@H]2CCCN2C(=O)[C@@H]2CCCN2C1=O
notes: also called 3BP-3188
B9: Ac-Met-[Cys(3MeBn)-Pro-Pro-Thr-Glu-Phe-Cys]-Asp-His-Mpa-Arg-Asp-NH2 (peptide)
peptide: Ac-MCPPTEFCDHXRD-NH2
modifications: linker 2-8 via mXylylene; not fully specified (residue 11); printed as Ac-Met-[Cys(3MeBn)-Pro-Pro-Thr-Glu-Phe-Cys]-Asp-His-Mpa-Arg-Asp-NH2
notes: also called 3BP-3192
B10: Ac-Met-[Cys(3MeBn)-Pro-Pro-Thr-Glu-Phe-Cys]-Asp-His-phe-Arg-Asp-NH2 (peptide)
peptide: Ac-MCPPTEFCDH[dF]RD-NH2
modifications: linker 2-8 via mXylylene
SMILES: CSCC[C@H](NC(C)=O)C(=O)N[C@H]1CSCc2cccc(c2)CSC[C@@H](C(=O)N[C@@H](CC(=O)O)C(=O)N[C@@H](Cc2c[nH]cn2)C(=O)N[C@H](Cc2ccccc2)C(=O)N[C@@H](CCCNC(=N)N)C(=O)N[C@@H](CC(=O)O)C(N)=O)NC(=O)[C@H](Cc2ccccc2)NC(=O)[C@H](CCC(=O)O)NC(=O)[C@H]([C@@H](C)O)NC(=O)[C@@H]2CCCN2C(=O)[C@@H]2CCCN2C1=O
notes: also called 3BP-3211
B11: Ac-Met-[Cys(3MeBn)-Pro-Pro-Thr-Glu-Phe-Cys]-Asp-His-Tic-Arg-Asp-NH2 (peptide)
peptide: Ac-MCPPTEFCDH[Tic]RD-NH2
modifications: linker 2-8 via mXylylene
SMILES: CSCC[C@H](NC(C)=O)C(=O)N[C@H]1CSCc2cccc(c2)CSC[C@@H](C(=O)N[C@@H](CC(=O)O)C(=O)N[C@@H](Cc2c[nH]cn2)C(=O)N2Cc3ccccc3C[C@H]2C(=O)N[C@@H](CCCNC(=N)N)C(=O)N[C@@H](CC(=O)O)C(N)=O)NC(=O)[C@H](Cc2ccccc2)NC(=O)[C@H](CCC(=O)O)NC(=O)[C@H]([C@@H](C)O)NC(=O)[C@@H]2CCCN2C(=O)[C@@H]2CCCN2C1=O
notes: also called 3BP-3189
B12: Ac-Met-[Cys(3MeBn)-Pro-Pro-Thr-Glu-Phe-Cys]-Asp-His-Aic-Arg-Asp-NH2 (peptide)
peptide: Ac-MCPPTEFCDH[Aic]RD-NH2
modifications: linker 2-8 via mXylylene
SMILES: CSCC[C@H](NC(C)=O)C(=O)N[C@H]1CSCc2cccc(c2)CSC[C@@H](C(=O)N[C@@H](CC(=O)O)C(=O)N[C@@H](Cc2c[nH]cn2)C(=O)NC2(C(=O)N[C@@H](CCCNC(=N)N)C(=O)N[C@@H](CC(=O)O)C(N)=O)Cc3ccccc3C2)NC(=O)[C@H](Cc2ccccc2)NC(=O)[C@H](CCC(=O)O)NC(=O)[C@H]([C@@H](C)O)NC(=O)[C@@H]2CCCN2C(=O)[C@@H]2CCCN2C1=O
notes: also called 3BP-3190
B13: Ac-Met-[Cys(3MeBn)-Pro-Pro-Thr-Glu-Phe-Cys]-Asp-His-Phe-arg-Asp-NH2 (peptide)
peptide: Ac-MCPPTEFCDHF[dR]D-NH2
modifications: linker 2-8 via mXylylene
SMILES: CSCC[C@H](NC(C)=O)C(=O)N[C@H]1CSCc2cccc(c2)CSC[C@@H](C(=O)N[C@@H](CC(=O)O)C(=O)N[C@@H](Cc2c[nH]cn2)C(=O)N[C@@H](Cc2ccccc2)C(=O)N[C@H](CCCNC(=N)N)C(=O)N[C@@H](CC(=O)O)C(N)=O)NC(=O)[C@H](Cc2ccccc2)NC(=O)[C@H](CCC(=O)O)NC(=O)[C@H]([C@@H](C)O)NC(=O)[C@@H]2CCCN2C(=O)[C@@H]2CCCN2C1=O
notes: also called 3BP-3212
B14: Ac-Met-[Cys(3MeBn)-Pro-Pro-Thr-Glu-Phe-Cys]-Asp-His-Ppa-Arg-Asp-NH2 (peptide)
peptide: Ac-MCPPTEFCDH[4Pal]RD-NH2
modifications: linker 2-8 via mXylylene
notes: also called 3BP-3191
B15: Ac-Met-[Cys(3MeBn)-Pro-Pro-Thr-Glu-Thi-Cys]-Asp-His-Phe-Arg-Asp-NH2 (peptide)
peptide: Ac-MCPPTE[2Thi]CDHFRD-NH2
modifications: linker 2-8 via mXylylene
SMILES: CSCC[C@H](NC(C)=O)C(=O)N[C@H]1CSCc2cccc(c2)CSC[C@@H](C(=O)N[C@@H](CC(=O)O)C(=O)N[C@@H](Cc2c[nH]cn2)C(=O)N[C@@H](Cc2ccccc2)C(=O)N[C@@H](CCCNC(=N)N)C(=O)N[C@@H](CC(=O)O)C(N)=O)NC(=O)[C@H](Cc2cccs2)NC(=O)[C@H](CCC(=O)O)NC(=O)[C@H]([C@@H](C)O)NC(=O)[C@@H]2CCCN2C(=O)[C@@H]2CCCN2C1=O
notes: also called 3BP-3193

What was measured:
[1] = target: Recombinant human FAP (R&D systems, #3715-SE) (human, UniProt Q12884 26-760); experiment: cell-based or functional assay
[2] = target: T1, fibroblast activation protein (FAP) on FAP-expressing human WI-38 fibroblasts (human, UniProt Q12884 1-760); experiment: competitive FACS, WI-38 cells, vs Cy5 tracer m3; A = pIC50 >8.0
T1 construct: also called human FAP

Binder | pIC50 Category (Activity) [1] | pIC50 Category (FACS) [2]
B1 | > 8 pIC50 | > 8 pIC50
B2 | > 8 pIC50 | > 8 pIC50
B3 | > 8 pIC50 | > 8 pIC50
B4 | > 8 pIC50 | > 8 pIC50
B5 | > 8 pIC50 | > 8 pIC50
B6 | > 8 pIC50 | > 8 pIC50
B7 | > 8 pIC50 | > 8 pIC50
B8 | > 8 pIC50 | > 8 pIC50
B9 | > 8 pIC50 | > 8 pIC50
B10 | > 8 pIC50 | > 8 pIC50
B11 | > 8 pIC50 | > 8 pIC50
B12 | > 8 pIC50 | > 8 pIC50
B13 | > 8 pIC50 | > 8 pIC50
B14 | > 8 pIC50 | > 8 pIC50
B15 | > 8 pIC50 | > 8 pIC50
